According to a protein production outcome set (Wang et al. 2014):

Test: label from the status in PepcDB records

| Sequence | protein production |
| --- | --- |
| MELLFIIAAFVMGFIALKINLPPLVGFLLAGFGLHALGFQSNDALETFADLGVTLLLFSIGLKLDIKTLLAKEIWLGATLHNVFSTLFFTFALLGLKLLGINMLANIETAQLVLFGFALSFSSTVFAVKALQEKGEMNATYGTLAIGILVMQDIFAVVFLTASTGKIPEITALALFALPLFRPLFFKLLDWAGHGEMLVLYGIFLALVAGAGTFELVGMKPDLGALILGMLLAGHAKASELSKSLFNLKEVLLICFFLNIGLSAAPTISGLGLALILILLLPVKGFLYFIIINKFKFRVRTSLLASLTLFNYSEFGLIVGGLAFKMGWLPADTLVAIAIAVSISFIISAPLNNFGHTIYQRSRHWLKEHTAERLNPMDKLINPGRAQILILGMGRIGSGAYDELKEKYGDIILGIELREESAKQHQELGRNVISGDATDPDFWERILSTSHVKLVLLAMPNHQGNQFALEQLQTRNYQGQTAAIAAYNDQIDGLIEQGVDAAFNIYHEAGSGFARHVSEQLDPQFNHHKDYITH | failed |
| MELNNTIATPLYKQLEKKLQQEIDSGKRPAGSRLPTENELSKAYNVSRVTVRKALAELSESGYLERKSGKGTFVAEKKLERGITNGVLGFSEMCKMMNAIPGAKIIKIALEEPSEKDIQKMSLNKDEKVLVLERVRYANGKPVLLELNKFPESFSFLFEENLTDASLYDILEQHNIILDHSRKTLDIVFADTKEAKTLGISRGYPLLRINSIIHNADNTITNLCQQLCIGDKFTFII | failed |
| MELSAIGEQVFAVESIRKKRVRKGKVEYLVKWKGWPPKYSTWEPEEHILDPRLVMAYEEKEERDRASGYRKRGPKPKRLLLQRLYSMDLRSSHKAKGKEKLCFSLTCPLGSGSPEGVVKAGAPELVDKGPLVPTLPFPLRKPRKAHKYLRLSRKKFPPRGPNLESHSHRRELFLQEPPAPDVLQAAGEWEPAAQPPEEEADADLAEGPPPWTPALPSSEVTVTDITANSITVTFREAQAAEGFFRDRSGKF | failed |
| MELVDRYIAAVQRELPEDKRQEIGRELKANICDQLDALAEHAELTESQIADVLQQMGHPAQVAQQFVPPTPIVASEDISLFKHTLVMVLGVLFVLQVVSGATQWLGSTEGSLFGFIRHIASGFIVDACFAFTAILLSFWSISAQGKVMFGGRCQHWQPQNLPNVGPDWQHISLSDVFSDLATYLFLLLLIWNNLWMSADQLAARSVIFSANAQQLLQWFSPVILLSLLNTLWQLLRRLWTAPLLLANAGVNLAYALCLVFLAFSSPLLQYQGGEVEGIFTLQQLDTWLGHALLVTALFPGYECIRDMLRWRKLTAH | failed |
| MELVVGRVVKSHGVTGEVVVEIRTDDPADRFAPGTRLRAKGPFDGGAEGSAVSYVIESVRQHGGRLLVRLAGVADRDAADALRGSLFVIDADDLPPIDEPDTYYDHQLVGLMVQTATGEGVGVVTEVVHTAAGELLAVKRDSDEVLVPFVRAIVTSVSLDDGIVEIDPPHGLLNLE | failed |
| MEMKTKKAVLMSSLALSIIAFLLALILMQPNSAGYPEVPAVPTYVLFGLSAASFAVFIYEYFTATRT | failed |
| MEMRKIGLIGGMSFESSAVYYRLVNEAVRRRRGKLHSAEVLLHSVDFQRIVDLQRAGHWDDAALLLSDVARGLVAGGADCILICSNTMHLIADAVHASVDVPLINIIDETALRLKAAGSRKPLLLATRYTMEQGFYAERMKTHDIDLMVPDADGRTLTHNVIFDELCAGQVLNASRSAVIGLIEKAKAEGADAVILGCTEICLLLDPADLPLPGFDSTAIHAEAAVEFSLRDRQ | failed |
| MEMTNAQRLILSNQYKMMTMLDPANAERYRRLQTIIERGYGLQMRELDREFGELKEETCRTIIDIMEMYHALHVSWSNLQDQQSIDERRVTFLGFDAATEARYLGYVRFMVNVEGRYTHFDAGTHGFNAQTPMWEKYQRMLNVWHACPRQYHLSANEINQIINA | not failed |
| MENEGASTVCPLDPGSPLFLSGDGFEPVGVLFPHAVFHFPSKEKKEAYDFMDKVVDKHRRLCDERQRLGLKNESEVDVKNEGSTSNPEPAVKEPVPEPLP | not failed |
| MENFFNQFFESIGEDKNREGLKETPKRVQELWKFLYKGYKEDPRVALKSAYFQGVCDEMIVAQNIEFYSTCEHHLLPFLGNISVGYIPKEKIVGISAIAKLIEIYSRRLQIQERLTIQIAETFDEIIEPRGVIVVCEAKHLCMSMQGVQKQNAIIKTSVLRGLFKKDSKTRAEFMQLLKS | failed |
